According to patent publication US20070117770, “Human ribosomal DNA (rDNA) and ribosomal RNA (rRNA) nucleic acids and uses thereof” (Cylene Pharmaceuticals, Inc., published 2007):

Assays:
[1] = target: T1, Nucleolin (MBP fusion, lacking N-terminal acidic stretches domain) (Homo sapiens, UniProt P19338 P19338:284-710); assay: filter; Bmax 47%; 60 mM KCl, 1 mM MgCl2; details: label: 32P
Experimental: (§1) The assay also was conducted in a filter-binding format. In such forms of the assay, 0.2 nM of ³²P-labeled quadruplexes were incubated in 50 uL of the binding buffer (12.5 mM Tris-HCl, pH 7.6, 60 mM KCl, 1 mM MgCl2, 0.1 mM EDTA, 5% glycerol, 0.1 mg/mL BSA) for 10 min at 85 C and then for 10 min on ice and mixed with another 50 uL of binding buffer containing increasing amounts of recombinant protein Nucleolin. The protein-quadruplex mixtures were incubated for 30 min at ambient temperature and filtered through mixed cellulose ester membrane filters (Millipore) with gentle suction. The filters were washed twice with […] of binding buffer, dried and OptiPhase ‘SuperMix’ scintillation cocktail (Perkin Elmer) was added to the wells. Radioactivity was assayed with MicroBeta scintillation counter (Perkin Elmer). Binding curves were constructed and apparent Kd's and Bmax's for the complexes were calculated using the GraphPad Prizm software program (GraphPad Software). […]

[2] = target: T1, Nucleolin (MBP fusion, lacking …); assay: filter; Bmax 53%; 60 mM KCl, 1 mM MgCl2; details: label: 32P; G4 mixed
Experimental: as §1

[3] = target: T1, Nucleolin (MBP fusion, lacking …); assay: filter; apparent Kd; Bmax 41%; 12.5 mM Tris-HCl pH 7.6, 60 mM KCl, 1 mM MgCl2, ambient temperature; details: label: 32P; G4 mixed
Experimental: as §1

[4] = target: T1, Nucleolin (MBP fusion, lacking …); assay: filter; Bmax 49%; 60 mM KCl, 1 mM MgCl2; details: label: 32P; G4 motif, CD not determined
Experimental: as §1

[5] = target: T1, Nucleolin (MBP fusion, lacking …); assay: filter; Bmax 52%; 60 mM KCl, 1 mM MgCl2; details: label: 32P; G4 motif, CD not determined
Experimental: as §1

[6] = target: T1, Nucleolin (MBP fusion, lacking …); assay: filter; Bmax 66%; 60 mM KCl, 1 mM MgCl2; details: label: 32P; G4 mixed
Experimental: as §1

[7] = target: T1, Nucleolin (MBP fusion, lacking …); assay: filter; Bmax 32%; 60 mM KCl, 1 mM MgCl2; details: label: 32P
Experimental: as §1

[8] = target: T1, Nucleolin (MBP fusion, lacking …); assay: filter; Bmax 43%; 60 mM KCl, 1 mM MgCl2; details: label: 32P; G4 motif, CD not determined
Experimental: as §1

[9] = target: T1, Nucleolin (MBP fusion, lacking …); assay: filter; Bmax 16%; 60 mM KCl, 1 mM MgCl2; details: label: 32P; G4 motif, CD not determined
Experimental: as §1

[10] = target: T1, Nucleolin (MBP fusion, lacking …); assay: filter; Bmax 50%; 60 mM KCl, 1 mM MgCl2; details: label: 32P
Experimental: as §1

[11] = target: T1, Nucleolin (MBP fusion, lacking …); assay: filter; Bmax 84%; 60 mM KCl, 1 mM MgCl2; details: label: 32P; G4 mixed
Experimental: as §1

[12] = target: T1, Nucleolin (MBP fusion, lacking …); assay: filter; Bmax 20%; 60 mM KCl, 1 mM MgCl2; details: label: 32P; G4 motif, CD not determined
Experimental: as §1

[13] = target: T1, Nucleolin (MBP fusion, lacking …); assay: filter; Bmax 100%; sequence taken from Example 6 table; details: label: 32P; G4 complex
Experimental: as §1

[14] = target: T1, Nucleolin (MBP fusion, lacking …); assay: filter; 60 mM KCl, 1 mM MgCl2; details: label: 32P
Experimental: The assay also was conducted in a filter-binding format. In such forms of the assay, 0.2 nM of ³²P-labeled quadruplexes were incubated in 50 uL of the binding buffer (12.5 mM Tris-HCl, pH 7.6, 60 mM KCl, 1 mM MgCl2, 0.1 mM EDTA, 5% glycerol, 0.1 mg/mL BSA) for 10 min at 85 C and then for 10 min on ice and mixed with another 50 uL of binding buffer containing increasing amounts of recombinant protein Nucleolin. The protein-quadruplex mixtures were incubated for 30 min at ambient temperature and filtered through mixed cellulose ester membrane filters (Millipore) with gentle suction. The filters were washed twice with […] of binding buffer, dried and OptiPhase ‘SuperMix’ scintillation cocktail (Perkin Elmer) was added to the wells. Radioactivity was assayed with MicroBeta scintillation counter (Perkin Elmer). Binding curves were constructed and apparent Kd's and Bmax's for the complexes were calculated using the GraphPad Prizm software program (GraphPad Software). In the following table, the nucleic acid ligand is designated in the first column using the nomenclature described herein; the second column provides the nucleotide sequence of the nucleic acid ligand; the third column is the conformation of the ligand as determined by circular dichroism (M is mixed, P is parallel, A is antiparallel, C is complex, SS is single-stranded and ND is not determined); the fourth column is the dissociation constant determined by the filter binding assay of nucleolin protein and the nucleic acid ligand; the fifth column is a Bmax constant determined by the filter binding assay, which is the percent of active nucleic acid ligand in each assay; and the sixth column presents the concentration of Compound A-1 required to dissociate half of the complexed nucleic acid ligand and nucleolin protein, as determined by the EMSA assay described above.

[15] = target: T1, Nucleolin (MBP fusion, lacking …); assay: filter; Bmax 82%; 60 mM KCl, 1 mM MgCl2; details: label: 32P; G4 motif, CD not determined
Experimental: as §1

[16] = target: T1, Nucleolin (MBP fusion, lacking …); assay: filter; Bmax 37%; 60 mM KCl, 1 mM MgCl2; details: label: 32P; G4 parallel
Experimental: as §1

[17] = target: T1, Nucleolin (MBP fusion, lacking …); assay: filter; Bmax 65%; 60 mM KCl, 1 mM MgCl2; details: label: 32P; G4 motif, CD not determined
Experimental: as §1

[18] = target: T1, Nucleolin (MBP fusion, lacking …); assay: filter; Bmax 35%; 60 mM KCl, 1 mM MgCl2; details: label: 32P; G4 motif, CD not determined
Experimental: as §1

[19] = target: T1, Nucleolin (MBP fusion, lacking …); assay: filter; Bmax 21%; 60 mM KCl, 1 mM MgCl2; details: label: 32P; G4 motif, CD not determined
Experimental: as §1

[20] = target: T1, Nucleolin (MBP fusion, lacking …); assay: filter; Bmax 26%; 60 mM KCl, 1 mM MgCl2; details: label: 32P; G4 mixed
Experimental: as §1

[21] = target: T1, Nucleolin (MBP fusion, lacking …); assay: filter; Bmax 33%; 60 mM KCl, 1 mM MgCl2; details: label: 32P; G4 parallel
Experimental: as §1

[22] = target: T1, Nucleolin (MBP fusion, lacking …); assay: filter; Bmax 55%; 60 mM KCl, 1 mM MgCl2; details: label: 32P; G4 motif, CD not determined
Experimental: as §1

[23] = target: T1, Nucleolin (MBP fusion, lacking …); assay: filter; Bmax 31%; 60 mM KCl, 1 mM MgCl2; details: label: 32P; G4 motif, CD not determined
Experimental: as §1

T1 sequence (P19338 284-710, one chain of several): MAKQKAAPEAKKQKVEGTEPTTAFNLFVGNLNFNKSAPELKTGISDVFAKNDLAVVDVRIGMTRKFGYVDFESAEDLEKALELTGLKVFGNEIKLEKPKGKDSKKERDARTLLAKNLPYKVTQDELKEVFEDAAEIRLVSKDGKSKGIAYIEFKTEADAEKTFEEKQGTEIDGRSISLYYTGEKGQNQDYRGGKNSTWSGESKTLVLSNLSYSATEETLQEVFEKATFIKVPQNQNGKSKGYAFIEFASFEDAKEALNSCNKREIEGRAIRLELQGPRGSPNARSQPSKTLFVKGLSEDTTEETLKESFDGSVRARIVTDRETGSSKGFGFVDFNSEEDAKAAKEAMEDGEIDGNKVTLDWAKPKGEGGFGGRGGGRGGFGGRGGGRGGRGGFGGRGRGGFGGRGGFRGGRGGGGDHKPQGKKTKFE

AGGGGACACCGGGGGGGCGCCGGGGG (structured_DNA) [11888T]
Kd ([1]; G4 motif, CD not determined): 0.2 nM

GGGAGGGGCACGGGCCGGGGGCGGGACGGG (structured_DNA) [7733T]
Kd [2]: 0.8 nM

GGGTGGACGGGGGGGCCTGGTGGGG (structured_DNA) [1196NT]
Kd [3]: 4.2 nM

AGGGAGGACGCGGGGCCGGGGGGCGGAGACGGG (structured_DNA) [8716T]
Kd [4]: 3.1 nM

AGGGCGCGGGGTGGGGAGGG (structured_DNA) [10951T]
Kd [5]: 0.2 nM

GGGTCGGGGGGTGGGGCCCGGGCCGGGG (structured_DNA) [2957NT]
Kd [6]: 2.7 nM

GGGGCGCGGCGGGGGGAGAAGGGTCGGGGCGGCAGGGG (structured_DNA) [11028NT]
Kd ([7]; G4 mixed): 2.7 nM

AGGGGCGGGGGCGCGGGGAGGAGGGGTGGG (structured_DNA) [9024T]
Kd [8]: 0.3 nM

AGGGGCGGCGGGGAGGAGGAGGGGCGCGGGG (structured_DNA) [7370T]
Kd [9]: 1.1 nM

AGGGCGGGCGGCGGGGCGGG (structured_DNA) [7499T]
Kd [9]: 1.1 nM

GGGCCCGCGGGGGGAGGGGGAAGGGGCGGG (structured_DNA) [6914T]
Kd ([10]; G4 mixed): 0.8 nM

AGGGAGGGAGACGGGGGGG (structured_DNA) [5701NT]
Kd [11]: 3.2 nM

AGGGCGGACGGGAGGGAGCGAGCGGGCGCGGGGG (structured_DNA) [3500T]
Kd [12]: 1.1 nM

AGGGGGGAACGGGGGGCGGACGGGGCCGGGGGGGTAGGGCGGGGGG (structured_DNA) [11345T]
Kd ([7]; G4 motif, CD not determined): 0.3 nM

B1: 8762NT (structured_DNA)
DNA: CGGAGGGCGCGCGGGTCGGGGCGGCGGCGGCGGCGGCGGTGGCGGCGGCGGCGGGGGCGGCGGG
Kd [13]: 0.3 nM

AGGGACGCCTGGGGAAGGGAGGGGG (structured_DNA) [1310T]
Kd ([10]; G4 motif, CD not determined): 4.4 nM

AGGGACGGGGACCGGCGGGCCACGGGG (structured_DNA) [13236T]
Kd ([14]; G4 motif, CD not determined): > 30 nM

B2: 10885T (structured_DNA)
DNA: AGGGTGGGGCGGGGGAGGGCCGCGAGGGGGGTGCCCCGGGCGTGGGGGGGG
Kd [15]: 0.2 nM

GGGGTGGGGGGGAGGG (structured_DNA) [13079NT]
Kd [16]: 2.6 nM

GGGCCGGGACGGGGTCCGGGG (structured_DNA) [13173NT]
Kd ([14]; G4 mixed): > 30 nM

AGGGGCTCCGGGGGCGGGGAGCGGGGCGTGGGCGGGAGGAGGGG (structured_DNA) [10137T]
Kd [17]: 0.4 nM

AGGGGAGGGGGGAGGACGGGGAGCGGGGG (structured_DNA) [10985T]
Kd [18]: 0.2 nM

AGGGACCGGTGGGGCCGGGGCGGGG (structured_DNA) [3468T]
Kd [19]: 2.4 nM

GGAGGAGGAGGA (structured_DNA) [GGA4]
Kd ([14]; G4 parallel): > 30 nM

GGGTCGGGGGCGGTGGTGGGCCCGCGGGGG (structured_DNA) [6183NT]
Kd [20]: 2.2 nM

B3: 8440T (structured_DNA)
DNA: AGGGGCGGCGGGGGAAGGGAGGGCGGGTGGAGGGGTCGGGAGGAACGGGGGGCGGG
Kd [18]: 0.3 nM

TGGGGAGGGTGGGGAGGGTGGGGAATT (structured_DNA) [Myc27]
Kd [21]: 4.4 nM

AGGGTTAGGGTTAGGGTTAGGG (structured_DNA) [hTel]
Kd ([14]; G4 antiparallel): > 30 nM

B4: 2160T (structured_DNA)
DNA: AGGGCGGCGGGCGGGGAAGAGGGCACAGACGGGCGAGGGCCGGGGACCGCGAGGGCAAGGGCACCCGGG
Kd [22]: 0.7 nM

GGGGGCGGGAACCCCCGGGCGCCTGTGGG (structured_DNA) [6374NT]
Kd ([1]; G4 mixed): 5.5 nM

AGGGGGTGGGCGCCGGGAGGGGGG (structured_DNA) [8904T]
Kd [23]: 0.4 nM
